# According to patent publication US20150250895A1 (GEORGETOWN UNIVERSITY, published 2015):
# T1: activated matriptase (human, UniProt Q9Y5Y6 1-855)
# T1 sequence (looked up): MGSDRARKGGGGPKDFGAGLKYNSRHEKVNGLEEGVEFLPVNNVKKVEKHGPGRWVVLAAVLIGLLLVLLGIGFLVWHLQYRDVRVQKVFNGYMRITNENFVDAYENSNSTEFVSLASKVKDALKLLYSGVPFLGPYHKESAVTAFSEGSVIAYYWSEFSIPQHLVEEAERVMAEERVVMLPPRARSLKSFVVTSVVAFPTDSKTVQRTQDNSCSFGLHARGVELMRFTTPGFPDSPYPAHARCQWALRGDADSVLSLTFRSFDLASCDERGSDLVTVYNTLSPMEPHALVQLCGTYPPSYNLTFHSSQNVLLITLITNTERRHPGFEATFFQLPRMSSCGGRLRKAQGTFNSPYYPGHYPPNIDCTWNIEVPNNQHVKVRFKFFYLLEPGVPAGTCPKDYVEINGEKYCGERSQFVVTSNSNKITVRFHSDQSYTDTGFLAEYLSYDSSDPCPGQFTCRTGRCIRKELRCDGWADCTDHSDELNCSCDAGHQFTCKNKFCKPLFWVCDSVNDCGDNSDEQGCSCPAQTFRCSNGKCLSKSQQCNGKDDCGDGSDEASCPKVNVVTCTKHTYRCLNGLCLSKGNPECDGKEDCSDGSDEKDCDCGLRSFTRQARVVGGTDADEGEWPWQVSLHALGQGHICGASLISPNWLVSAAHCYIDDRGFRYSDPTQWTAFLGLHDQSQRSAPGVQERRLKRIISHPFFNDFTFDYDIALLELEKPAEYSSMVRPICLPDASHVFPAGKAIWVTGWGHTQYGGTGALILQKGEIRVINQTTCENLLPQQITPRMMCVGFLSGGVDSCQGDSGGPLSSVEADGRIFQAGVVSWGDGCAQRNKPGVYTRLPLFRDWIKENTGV
# Molecular target: T1, activated matriptase
# Experiment: cell-based or functional assay
binder,measurement,value
"M17-DOX (monoclonal antibody M17 against activated matriptase conjugated to doxorubicin) (antibody, V domains shown, doxorubicin coupled via thioether bond formed by the SMCC reaction; sites not stated) VH: EVKLVESGGGLVQPGGSRKLSCAASGFTFSSFGMHWVRQAPEKGLEWVAYISSGSSTLHYADTVKGRFTISRDNPENTLLLMKLPSLCYGLLGSRNLSPRVLQ VL: not shown","IC50, MTS cell proliferation (cytotoxicity) assay, breast cancer cells MDA-MB468",0.65 µg/mL
